# Test results taken from patent US20090291088A1, “THERAPEUTIC COMBINATIONS OF ANTI-IGF-1R ANTIBODIES AND OTHER COMPOUNDS” (Biogen Idec MA Inc., priority 2008, published 2009).
# B1: M14-C03_Fab (antibody, V domains shown)
# VH: EVQLLESGGGLVQPGGSLRLSCAASGFTFSKYMMSWVRQAPGKGLEWVSYISPSGGLTWYADSVKGRFTISRDNSKNTLYLQMNSLRAEDTAVYYCARDGARGYGMDVWGQGTTVTVSS
# VL: DIQMTQSPATLSLSPGERATLSCRASQSVSSYLAWYQQKPGQAPRLLIYDASNRATGIPARFSGSGSGTDFTLTISSLEPEDFAVYYCQQRSNWPPEVTFGPGTKVDIK
# Target: T1, recombinant human IGF-1R-10His (Homo sapiens, UniProt P08069)
# T1 construct: denoted hIGF-1R(1-902)-His10, was purchased from R&D systems (Cat. No. 305-GR-050); purchased R&D Systems 305-GR-050
# Test: SPR, antibodies and Fabs on IGF-1R-His captured via PENTA-His antibody
# Format: binding
# Settings: Fab fragment; 25° C.
# Experimental: Method: The binding activity of M13-C06, M14-C03, and […] to soluble IGF-1R was measured using surface plasmon resonance. Biotinylated PENTA-His Antibody (Qiagen, Inc.) was immobilized onto a Streptavidin coated Sensor Chip. Soluble/Dimeric IGF-1R-His ectodomain (R&D systems, Inc.) was captured on the surface via the PENTA-His antibody. Secondary injections of M13-C06, M14-C03, or M14-G11 Fabs (0.5 nM-100nM) were performed. The surfaces were regenerated with three short injections of acetate, pH 4.0.
# M13-C06, M14-C03, and M14-G11 Fab antibodies were prepared by digestion with immobilized papain (Pierce Cat. No. 20341 (Pierce Biotechnology, Inc., Rockford, Ill.)). The papain resin was washed with 20 mM sodium phosphate pH 7.0; 10 mM EDTA; 20 mM Cysteine. Antibodies were mixed with the papain resin in 500 mM EDTA, 100 mM Cysteine pH 7.0 and digested for three hours in a 37° C. water bath followed by mixing on an inverting shaker overnight at room temperature. Completion of each digestion was determined by analytical size exclusion chromatography (SEC). The resin was removed from the digested protein with a sintered glass funnel filter and washed with 20 mM acetate pH 5.0. The flowthrough was collected and diluted 10-fold with 20 mM acetate pH 5.0. Fab fragments were purified by S-SEPHAROSE™ cation exchange chromatography using a linear salt gradient. […]
molecule,measurement,value
B1,ka,190000 M⁻¹ s⁻¹
same,kd,0.00094 s⁻¹
